Assay results as given in US10766960 (dated 2020).
Where two headings read alike, the source gives them in different places. Each block holds one binder with its values, some of them ahead of it.

Legend:
Experiment in all cases: SPR
FcgRIIIa F [1] = target: T1, FcgRIIIa F (human, UniProt P08637)
FcgRIIa R [2] = target: T2, FcgRIIa R (human, UniProt P12318)
T2 chain: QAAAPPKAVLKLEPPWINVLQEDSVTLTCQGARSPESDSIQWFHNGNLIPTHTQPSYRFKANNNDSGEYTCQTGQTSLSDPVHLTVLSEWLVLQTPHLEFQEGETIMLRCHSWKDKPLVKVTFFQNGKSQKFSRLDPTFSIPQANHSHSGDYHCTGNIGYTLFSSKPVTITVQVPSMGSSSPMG

FcgRIIIa F [3] = target: T1, FcgRIIIa F; remark: listed apart in the source
FcgRIa [4] = target: T3, FcgRIa (human, UniProt P12314)
T3 chain: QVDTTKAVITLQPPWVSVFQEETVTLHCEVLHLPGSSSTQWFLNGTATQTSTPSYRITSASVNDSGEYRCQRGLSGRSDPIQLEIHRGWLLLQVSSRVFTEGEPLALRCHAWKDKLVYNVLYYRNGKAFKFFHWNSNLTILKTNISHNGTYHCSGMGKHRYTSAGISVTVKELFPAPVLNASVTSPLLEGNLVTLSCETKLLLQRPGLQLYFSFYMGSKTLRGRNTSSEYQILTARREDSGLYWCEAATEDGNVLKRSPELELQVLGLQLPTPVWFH

FcgRIIIa V [5] = target: T4, FcgRIIIa V (human, UniProt P08637)
FcgRIIb [6] = target: T5, FcgRIIb (human, UniProt P31994)
T5 chain: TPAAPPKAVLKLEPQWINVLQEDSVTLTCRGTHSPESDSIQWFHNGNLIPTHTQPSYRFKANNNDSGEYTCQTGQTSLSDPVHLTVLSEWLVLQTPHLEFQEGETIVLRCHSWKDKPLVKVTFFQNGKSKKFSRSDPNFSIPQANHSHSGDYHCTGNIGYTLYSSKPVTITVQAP

FcgRIIa H [7] = target: T6, FcgRIIa H (human, UniProt P12318)
T6 chain: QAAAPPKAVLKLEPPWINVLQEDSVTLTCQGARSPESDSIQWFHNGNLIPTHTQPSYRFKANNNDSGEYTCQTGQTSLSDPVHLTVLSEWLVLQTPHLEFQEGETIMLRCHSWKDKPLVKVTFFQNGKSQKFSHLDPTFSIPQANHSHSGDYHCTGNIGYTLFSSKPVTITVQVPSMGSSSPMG

FcgRIIa R [8] = target: T2, FcgRIIa R
FcgRIIa H [9] = target: T6, FcgRIIa H
FcgRIIb [10] = target: T5, FcgRIIb
FcgRIa [11] = target: T3, FcgRIa
FcgRIIIa V [12] = target: T4, FcgRIIIa V; remark: listed apart in the source
FcgRIIIa V [13] = target: T4, FcgRIIIa V; remark: listed apart in the source

T4 sequence (P08637 17-208 F176V): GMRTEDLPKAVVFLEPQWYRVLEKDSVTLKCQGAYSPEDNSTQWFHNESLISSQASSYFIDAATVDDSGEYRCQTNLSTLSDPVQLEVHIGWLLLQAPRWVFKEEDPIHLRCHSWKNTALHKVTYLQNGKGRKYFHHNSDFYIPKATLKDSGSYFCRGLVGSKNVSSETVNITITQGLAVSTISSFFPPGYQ
T1 sequence (P08637 17-208): as the sequence (P08637 17-208 F176V) above, with V160F counted along it

Kd (FcgRIIIa F [1]): 11 nM
B1: GpH7-A53/GpH7-B78/GpL16-k0 (antibody)
chain 1: QVQLVQSGAEVKKPGASVTVSCKASGYTFTDYEMHWIRQPPGEGLEWIGAIDPKTGDTAYSESFQDRVTLTADKSTSTAYMELSSLTSEDTAVYYCTRFYSYTYWGQGTLVTVSSASTKGPSVFPLAPSSKSTSGGTAALGCLVKDYFPEPVTVSWNSGALTSGVHTFPAVLQSSGLYSLSSVVTVPSSSLGTQTYICNVNHKPSNTKVDKKVEPKSCDKTHTCPPCPAPELLGGPDVFLFPPKPKDTLMISRTPEVTCVVVDVSHEDPEVKFNWYVDGVEVHNAKTKPREEQYNSTYRVVSVLTVLHQDWLNGKEYKCKVSNKALPAPIEKTISKAKGQPREPQVYTLPPSRKELTKNQVSLTCLVKGFYPSDIAVEWESNGQPENNYKTTPPVLDSDGSFFLYSKLTVDKSRWQQGNVFSCSVMHEALHNRYTQKSLSLSP
chain 2: QVQLVQSGAEVKKPGASVTVSCKASGYTFTDYEMHWIRQPPGEGLEWIGAIDPKTGDTAYSESFQDRVTLTADKSTSTAYMELSSLTSEDTAVYYCTRFYSYTYWGQGTLVTVSSASTKGPSVFPLAPSSKSTSGGTAALGCLVKDYFPEPVTVSWNSGALTSGVHTFPAVLQSSGLYSLSSVVTVPSSSLGTQTYICNVNHKPSNTKVDKKVEPKSCDKTHTCPPCPAPELLGGPDVFLFPPKPKDTLMISRTPEVTCVVVDVSHEDPEVKFNWYVDGVEVHNAKTKPREEQYNSTYRVVSVLTVLHQDWLNGKEYKCKVSNKALPLPEEKTISKAKGQPREPQVYTLPPSRDELTKNQVSLTCLVKGFYPSDIAVEWESNGQPENNYKTTPPVLDSDGSFFLYSKLTVDKSRWQQGNVFSCSVMHEALHNHYTQESLSLSP
chain 3: DIVMTQSPLSLPVTPGEPASISCQASESLVHSNRNTYLHWYLQKPGQSPQLLIYKVSNRFSGVPDRFSGSGSGTDFTLKISRVEAEDVGVYYCSQNTHVPPTFGQGTKVEIERTVAAPSVFIFPPSDEQLKSGTASVVCLLNNFYPREAKVQWKVDNALQSGNSQESVTEQDSKDSTYSLSSTLTLSKADYEKHKVYACEVTHQGLSSPVTKSFNRGEC

Kd (FcgRIIa R [2]): 710 nM | Kd (FcgRIIIa F [3]): 2.6 nM | Kd (FcgRIa [4]): 0.1 nM | Kd (FcgRIIIa V [5]): 1 nM | Kd (FcgRIIb [6]): 5.7 µM | Kd (FcgRIIa H [7]): 130 nM
B2: H240-Kn072/H240-Hl076/L73-k0 (antibody)
chain 1: QDQLVQSGAEVKKPGASVKVSCKASGFNIKDTYIQWVRQAPGQGLEWMGRIDPLRKQTKYREKFEGRVTITADTSTNTAYMELSSLRSEDTAVYYCVRSGREFDYWGQGTLVTVSSASTKGPSVFPLAPSSKSTSGGTAALGCLVKDYFPEPVTVSWNSGALTSGVHTFPAVLQSSGLYSLSSVVTVPSSSLGTQTYICNVNHKPSNTKVDKKVEPKSCDKTHTCPPCPAPEYYWGPSVFLFPPKPKDTLMISRTPEVTCVVVDVSDEEPEVKFNWYVDGVEVHNAKTKPREEQYNATYRVVSVLTVLHQDWLNGKEYKCKVSNKALPAPIEKTISKAKGQPREPQVCTLPPSRDELTKNQVSLWCLVKGFYPSDIAVEWESNGQPENNYKTTPPVLDSDGSFFLYSKLTVDKSRWQQGNVFSCSVMHEALHNHYTQKSLSLSP
chain 2: QDQLVQSGAEVKKPGASVKVSCKASGFNIKDTYIQWVRQAPGQGLEWMGRIDPLRKQTKYREKFEGRVTITADTSTNTAYMELSSLRSEDTAVYYCVRSGREFDYWGQGTLVTVSSASTKGPSVFPLAPSSKSTSGGTAALGCLVKDYFPEPVTVSWNSGALTSGVHTFPAVLQSSGLYSLSSVVTVPSSSLGTQTYICNVNHKPSNTKVDKKVEPKSCDKTHTCPPCPAPELLGGPSVFLFPPKPKDTLMISRTPEVTCVVVDVSHEEPEVKFNWYVDGVEVHNAKTKPREEQYNSTYRVVSVLTVLHQDWLNGKEYKCKVSNDALPMPIEETISKAKGQPREPQVYTLPPSRCELTKNQVSLSCAVKGFYPSDIAVEWESNGQPENNYKTTPPVLDSDGSFFLVSKLTVDKSRWQQGNVFSCSVMHEALHNHYTQKSLSLSP
chain 3: DIQMTQSPSSLSASVGDRVTITCRASQDIHKYIAWYQQKPGQAPRLLIQYTSTLQPGVPSRFSGSGSGTDYTFTISSLQPEDIATYYCLQYEQLRTFGGGTKVEIKRTVAAPSVFIFPPSDEQLKSGTASVVCLLNNFYPREAKVQWKVDNALQSGNSQESVTEQDSKDSTYSLSSTLTLSKADYEKHKVYACEVTHQGLSSPVTKSFNRGEC

Kd (FcgRIIa R [8]): 2.3 nM | Kd (FcgRIIa H [9]): 860 nM | Kd (FcgRIIb [10]): 8.9 nM | Kd (FcgRIa [11]): 0.05 nM | Kd (FcgRIIIa V [12]): 400 nM | Kd (FcgRIIIa V [13]): 7.1 µM
B3: IL6R-BP253/IL6R-L (antibody)
chain 1: QVQLQESGPGLVKPSETLSLTCAVSGHSISHDHAWSWVRQPPGEGLEWIGFISYSGITNYNPSLQGRVTISRDNSKNTLYLQMNSLRAEDTAVYYCARSLARTTAMDYWGEGTLVTVSSASTKGPSVFPLAPSSKSTSGGTAALGCLVKDYFPEPVTVSWNSGALTSGVHTFPAVLQSSGLYSLSSVVTVPSSSLGTQTYICNVNHKPSNTKVDKKVEPKSCDKTHTCPPCPAPELLGGPSVFLFPPKPKDTLMISRTPEVTCVVVDVEHEDPEVKFNWYVDGVEVHNAKTKPREEQYNSTYRVVSVLTVLHQDWLNGKEYKCKVSNKAFPAPIEKTISKAKGQPREPQVYTLPPSRDELTKNQVSLTCLVKGFYPSDIAVEWESNGQPENNYKTTPPVLDSDGSFFLYSKLTVDKSRWQQGNVFSCSVMHEALHNHYTQESLSLSP
chain 2: not shown
